Test results taken from the supplement of paper PMC12455559.

Assays:
[1] = melting temperature (DSF); higher = more thermostable
Outline: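 Enzymes made in E. coli C41(DE3) were nickel-bead purified and cut free with SUMO protease before testing. Differential scanning fluorimetry gave each melting temperature. For this, 5 μL 5X Sypro Orange was added to 45 μL enzyme (0 to 0.3 mg/mL) in sealed PCR plates, and a Bio-Rad CFX96 read fluorescence from 25 °C over 250 cycles of 0.3 °C each, ramping at 0.3 °C/s.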

[2] = purified protein yield per well (BCA); higher = higher soluble expression
Outline: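 Candidate enzymes were made in 2 mL autoinduction cultures of E. coli C41(DE3) with 100 µg/mL kanamycin, at 37 °C for 2 h and then 18 °C for 40 h, and purified with Ni-charged magnetic beads and SUMO protease cleavage. The Pierce Rapid Gold BCA kit gave purified protein yield per well. Values lower than 25 ug (0.1 mg/mL) are below the detection threshold.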

[3] = PET hydrolysis, aromatic products released after 48 h (umol product/mg enzyme); higher = more PET depolymerization activity
Outline: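 Tagless, SUMO-cleaved candidate enzymes were purified on nickel beads, and 5 μg (50 μL) was added to 3.5 mg amorphous PET film or crystalline PET powder in 450 μL buffer. Buffers were 50 mM NaCitrate (pH 4.5, 5.5), 50 mM NaPhosphate (pH 6.5, 7.5) or glycine (pH 8.5). Sealed plates were incubated 48 h at 40 or 60 °C without shaking. PET hydrolysis activity is the aromatic product in the supernatant, read by absorbance at 260 and 280 nm against buffer blanks and expressed per mg enzyme.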

[4] = substrate: cryPow, 40 °C, pH 5.5
[5] = substrate: cryPow, 40 °C, pH 6.5
[6] = substrate: cryPow, 40 °C, pH 7.5
[7] = substrate: cryPow, 60 °C, pH 5.5
[8] = substrate: cryPow, 60 °C, pH 6.5
[9] = substrate: cryPow, 60 °C, pH 7.5
[10] = substrate: cryPow, 40 °C, pH 4.5

STRNQEPTLQSIEAARGPYEIATQSVPPAVNTGFGGGTIYYPATTGAGKFGAVALSPGYMEKEYSFSWLGTRLASQGFVVFIINTQNSEEFPSARTDELLASLNYLTQTSEVRDRVDPNRLAVMGHSMGGGAALEAAEKNQSLRAVISMTPWNIKTTYSDIKTPTLIIGAQYDNIAPVHDHAQPSYASLPNDLAKSYLELRNGNHFSPNMENTAIARSSTVWLKRFVDGDTRYNKFICPGPTVGDEFNIVQSNCPIL [DP079]
melting temperature [1]: 60.4 C
purified protein yield per well [2]: 281 µg
PET hydrolysis ([3]; substrate: aFilm, 40 °C, pH 5.5): < 3
PET hydrolysis ([3]; substrate: aFilm, 40 °C, pH 6.5): < 3
PET hydrolysis ([3]; substrate: aFilm, 40 °C, pH 7.5): < 3
PET hydrolysis ([3]; substrate: aFilm, 40 °C, pH 8.5): < 3
PET hydrolysis ([3]; substrate: aFilm, 60 °C, pH 5.5): < 3
PET hydrolysis ([3]; substrate: aFilm, 60 °C, pH 6.5): < 3
PET hydrolysis ([3]; substrate: aFilm, 60 °C, pH 7.5): < 3
PET hydrolysis ([3]; substrate: aFilm, 60 °C, pH 8.5): < 3
PET hydrolysis [3, 4]: < 3
PET hydrolysis [3, 5]: < 3
PET hydrolysis [3, 6]: < 3
PET hydrolysis ([3]; substrate: cryPow, 40 °C, pH 8.5): < 3
PET hydrolysis [3, 7]: < 3
PET hydrolysis [3, 8]: < 3
PET hydrolysis [3, 9]: < 3
PET hydrolysis ([3]; substrate: cryPow, 60 °C, pH 8.5): < 3

TDNPHQRGPNPSQASISANRGTFATAETSVGSGNGFGAAKIYYPTDTGQGTFGAIAVSPGYTATWAAEGAWMGHWLASFGFVVIGIDTINRNDFDVARGTQLLAALDYLTQRSSVRTRVDPSRLAVMGHSMGGGGTISAALRRPTLKAAIGLAPYSPSQTTTGMQVPTVLLAGQNDGTSTPASIITLHNNIPASTEKAYLELTGAGHGFPTSNNSVVTRKVIPWMKIFIDQDTRYTQFLCPLQDWTGIRSYRNSCPLLPNDPGTTFSLAGSASGKCVDVPGRVQTNGTGLIIWTCNGAANQHWTRTAAGELRIYGNSKCMDASGQGARVTINSCNGGSGQKWTVGTNGTVTNAASAGCLDTGGTADNAPVIVTTCNGGSGQIWIKRS [ESM184]
melting temperature [1]: 43 C
purified protein yield per well [2]: 34 µg
PET hydrolysis [3, 10]: < 3
PET hydrolysis [3, 4]: < 3
PET hydrolysis [3, 5]: < 3
PET hydrolysis [3, 6]: < 3

VEIGPNPTSTLLNGNGPFSVSSSSVSSWVSGFGGGTIYYPTASGQYGVIAVCPGYTGTSSSISWFARRLATHGFVTIAMNTNSRFDFPDSRATQLAAALNYLLNSSSSTIRSRIRTADRGVAGHSMGGGGTLRASERDSNLKVGIPLTPWHTDKTWGSLSVPQMIFGADGDTVAPASSHARTFYNSIPSSTKKAYALLNNASHFTPNSTDERIGRYGVAFAKRFVDGDTRYEPFLCGAEHSTYATSWKFDTYLSTCPYGGGSEPEPDYPWWYWWR [ESM162]
melting temperature [1]: 69.7 C
purified protein yield per well [2]: 31.8 µg
PET hydrolysis [3, 10]: < 3
PET hydrolysis [3, 4]: < 3
PET hydrolysis [3, 5]: < 3
PET hydrolysis [3, 6]: < 3

VQIGPAPTKASLEASRGPFTVATTRLSANGHGGGTIYYPTNAGAKVGVIAIVPGYLSYQSSIEWWGPRLASHGFAVVTIDTLTIYDQPSSRSSQQLRALDQVVALGSKSTSPLYNKVDGSRTGVMGWSMGGGGSLISAQNRPSIKAAAPQAPWNTTSNFSSLTVPTLIFACQADVVAPILSHAVPFYNSMSRNPKQYLERTAGDHFCFNNANPTVGLKGVAWMKRFIDGDTRYTSFACSNPNALGFSSFRTERCS [ESM053]
melting temperature [1]: 62.8 C
purified protein yield per well [2]: 103 µg
PET hydrolysis [3, 10]: < 3
PET hydrolysis [3, 4]: 6
PET hydrolysis [3, 5]: 10
PET hydrolysis [3, 6]: 32
PET hydrolysis ([3]; substrate: cryPow, 60 °C, pH 4.5): < 3
PET hydrolysis [3, 7]: < 3
PET hydrolysis [3, 8]: 6
PET hydrolysis [3, 9]: 10

VQIGPNPTKSSLEASRGPFSTSQFTVSRPSGYGAGTVYYPTNAGAKVGAIAIVPGFLSYQSSINWWGPRLASHGFVVITIDTYTTGDQPDSRSRQQLAALDQVIALGNTSSSPIYGKVDGSRTGVMGWSMGGGGSLISAKNRPSIKAAAPQAPWNTSTNFSSVTVPTLIFACQSDIVAPVISHAIPFYNSMTRNPKQYLEKTLGDHFCFNNANATVGLKGVAWMKRFVDGDTRYTSFACSNPNAFGFSDFRTARCS [ESM045]
melting temperature [1]: 63.4 C
purified protein yield per well [2]: 30.4 µg
PET hydrolysis [3, 10]: 5
PET hydrolysis [3, 4]: 12
PET hydrolysis [3, 5]: 22
PET hydrolysis [3, 6]: 35
